Experimental findings from patent US20230028050A1 (JUNO THERAPEUTICS, published 2023) are described below.

The chains are these.
B4: soluble monomeric scFv-Fc fusion protein (scFv from anti-BCMA CAR 2) (Fc fusion)
chain: QSALTQPASVSASPGQSIAISCTGTSSDVGWYQQHPGKAPKLMIYEDSKRPSGVSNRFSGSKSGNTASLTISGLQAEDEADYYCSSNTRSSTLVFGGGTKLTVLGSRGGGGSGGGGSGGGGSLEMAEVQLVQSGAEMKKPGASLKLSCKASGYTFIDYYVYWMRQAPGQGLESMGWINPNSGGTNYAQKFQGRVTMTRDTSISTAYMELSRLRSDDTAMYYCARSQRDGYMDYWGQGTLVTVSS
notes: not shown: Fc
B5: soluble dimeric scFv-Fc fusion protein (scFv from anti-BCMA CAR 2) (Fc fusion)
chain: QSALTQPASVSASPGQSIAISCTGTSSDVGWYQQHPGKAPKLMIYEDSKRPSGVSNRFSGSKSGNTASLTISGLQAEDEADYYCSSNTRSSTLVFGGGTKLTVLGSRGGGGSGGGGSGGGGSLEMAEVQLVQSGAEMKKPGASLKLSCKASGYTFIDYYVYWMRQAPGQGLESMGWINPNSGGTNYAQKFQGRVTMTRDTSISTAYMELSRLRSDDTAMYYCARSQRDGYMDYWGQGTLVTVSS
notes: not shown: Fc
B7: anti-BCMA CAR 1 (chimeric antigen receptor with the scFv of anti-BCMA Target Antibody 1) (receptor)
chain: SYELTQPPSASGTPGQRVTMSCSGTSSNIGSHSVNWYQQLPGTAPKLLIYTNNQRPSGVPDRFSGSKSGTSASLAISGLQSEDEADYYCAAWDGSLNGLVFGGGTKLTVLGSRGGGGSGGGGSGGGGSLEMAEVQLVQSGAEVKKPGESLKISCKGSGYSFTSYWIGWVRQMPGKGLEWMGIIYPGDSDTRYSPSFQGHVTISADKSISTAYLQWSSLKASDTAMYYCARYSGSFDNWGQGTLVTVSS
notes: Whole receptor expressed on Jurkat T cells; not shown: human IgG-derived spacer, human CD28-derived transmembrane domain, human 4-1BB-derived intracellular signaling domain an

For assay [1], the target named is B5. The experiment in a line: SPR, BIAcore T200, against dimeric scFv-Fc. The protocol: (§1) Off rates and equilibrium dissociation constants were determined against a soluble monomeric scFv-Fc fusion protein as well as against a soluble dimeric scFv-Fc fusion protein. For comparison, the kinetics and affinity of soluble monomeric and dimeric BCMA-human Fc fusion proteins were also assessed against the monomeric and dimeric scFv-Fc fusion proteins, respectively. Off rates and equilibrium dissociation constants were determined using a BIAcore T200 instrument.
(In general: SPR reads the build-up and loss of mass on a sensor chip optically.)

Assay [2] has as its target B4. The experiment in a line: SPR, BIAcore T200, against monomeric scFv-Fc. The protocol: as §1
The target of assay [3] is T1, anti-BCMA CAR 2 (chimeric antigen receptor with the scFv of anti-BCMA Target Antibody 2).
T1 construct: Whole receptor expressed on Jurkat T cells, Nur77-tdTomato reporter cells or primary human T cells; not shown: human IgG2 and IgG4-derived spacer, human CD28-derived transmembrane domain, human 4-1BB-derived intracellular signaling
Put plainly: flow cytometry; Jurkat T cells expressing anti-BCMA CAR 2, 5 µg/mL purified anti-ID, goat anti-mouse IgG secondary antibody; parental Jurkat cells as negative. On the technique in general: Flow cytometry measures light scatter and fluorescence of single cells or particles in a stream.

The target in assay [4] is B7. Put plainly: flow cytometry; Jurkat T cells expressing anti-BCMA CAR 1, anti-ID conjugated to Alexa Fluor 647.
Assay [5] has as its target T2, soluble monomeric BCMA-human Fc fusion protein (UniProt Q02223 1-54, limits assumed).
T2 construct: also called Monomeric BCMA-Fc; not shown: human Fc
T2 sequence (looked up): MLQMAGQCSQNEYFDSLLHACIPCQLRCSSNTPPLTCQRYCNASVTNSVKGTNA
The experiment in a line: SPR, BIAcore T200, against monomeric scFv-Fc. The protocol:
as §1

Assay [6] addresses T3, soluble dimeric BCMA-human Fc fusion protein (UniProt Q02223 1-54, limits assumed).
T3 construct: also called Dimeric BCMA-Fc; not shown: human Fc
T3 sequence (looked up): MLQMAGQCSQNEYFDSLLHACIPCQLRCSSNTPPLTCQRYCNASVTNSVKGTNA
Put plainly: SPR, BIAcore T200, against dimeric scFv-Fc. As for the experimental part:
as §1

Assay [7] concerns the target B7. Put plainly: flow cytometry; Jurkat T cells expressing anti-BCMA CAR 1, 2.5 µg/mL anti-ID conjugated to Alexa Fluor 647, 20 min at 4 °C.
The target in assay [8] is T4, recombinant BCMA-Fc (soluble human BCMA fused at its C-terminus to an Fc region of IgG) fusion polypeptide (human, UniProt Q02223 1-54).
T4 construct: Used as a staining control; also called recombinant BCMA-Fc fusion polypeptide; not shown: Fc region of IgG
T4 sequence (looked up): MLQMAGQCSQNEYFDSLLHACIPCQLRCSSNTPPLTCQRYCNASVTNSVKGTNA
Put plainly: flow cytometry; Jurkat T cells expressing anti-BCMA CAR 1, staining with recombinant BCMA-Fc as control.

B1: anti-idiotype antibody clone 19 (antibody, mouse IgG2b, kappa, V domains shown)
VH: QVQLQQSGAELMKPGASVKLSCKATGYTFTAYWIEWVKQRPGHGLEWIGEILPGSGITKYSEKFKGKATFTADTSSNTAYMQLSSLTTEDSAIYYCARDYYSDNYWGQGTSVTVSS
VL: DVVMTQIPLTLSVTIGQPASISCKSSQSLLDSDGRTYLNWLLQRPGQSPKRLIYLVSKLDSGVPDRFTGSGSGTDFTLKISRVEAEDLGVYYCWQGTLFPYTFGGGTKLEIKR
notes: Mouse hybridoma antibody, purified; also called anti-ID clone 19
What is called Kd is the equilibrium constant for the complex coming apart. Read a high Kd as lower affinity. The koff is a measure of how fast the partners let go of each other. A high value points to fast dissociation. For B1, in assay [1], the Kd worked out at 3.6 nM and the koff was 6.2e-05 s⁻¹. In assay [2], this molecule yielded a Kd of 55 nM and a koff of 0.0081 s⁻¹.

B2: anti-idiotype antibody clone 10 (antibody, mouse IgG1, kappa, V domains shown)
VH: EVKLLESGGGLVQPGGSLKLSCAASGFDFSRYWMSWVRQAPGKGLEWIGEINPDSSTINYTPSLKDKFIISRDNAKNTLYLQMSKVRSEDTALYYCARHGYYWYFDVWGAGTTVTVSS
VL: DIQMTQTTSSLSASLGDRVTISCRASQDISNYLNWYQQKPDGTVKLLIYYTSRLHSGVPSRFSGSGSGTDYSLTISNLEQEDIATYFCQQGNTLPYTFGGGTKLEIKR
notes: Mouse hybridoma antibody raised against the anti-BCMA CAR 1 scFv fused to mouse Fc and purified; Detected with a goat anti-mouse IgG secondary antibody; also called anti-ID clone 10
In the case of B2, the binding result in assay [3] is “binds”.

B3: anti-idiotype antibody clone 16 (antibody, mouse IgG1, kappa, V domains shown)
VH: QVQLQQSGPELVKPGASVKISCKASGYTFTDFYINWVKQRPGQGLEWIGWIFPRSGSTYYNEKFKGKATLSVDKSSITAYMLLSSLTSEDSAVYFCARGDGYSGAMDYWGQGTSVTVSS
VL: DIQMTQTTSSLSASLGDRVTISCSASQGIRNYLNWYQQKPDGTVKLLIYYTSNLHSGVPSRFSGSGSGTDYSLTISNLEPEDIATYYCQQYNNLPRTFGGGTKLEIKR
notes: Mouse hybridoma antibody, purified; also called anti-ID clone 16
In assay [1], B3 came in with a Kd of 2.6 nM and a koff of 0.00014 s⁻¹. For the same molecule, the binding result in assay [4] is “no binding (tested: 2.5 µg/mL)”. In assay [2], this molecule came in with a Kd of 12 nM and a koff of 0.005 s⁻¹.
Consider B4, for which, in assay [5], the Kd was 290 nM and the koff was found to be 0.024 s⁻¹.
Consider B5, for which, in assay [6], the Kd amounted to 7 nM and the koff worked out at 0.00014 s⁻¹.

B6: anti-idiotype antibody clone 15 (antibody, mouse IgG1, kappa, V domains shown)
VH: QVQLQQSGAELVKPGASVKISCKASGYAFSSYWMNWVKQRPGKGLEWIGQIYPGNGETNNNGKFKGKATLTADISSSTAYMQLSSLTSEDSAVYFCARGGWYFDVWGTGTTVTVSS
VL: DIQMTQSPASLSASVGETVTITCRASENIYSYLAWYQQKQGKSPHLLVYNAYTLAEGVPSRFSGSGSDTQFSLKINSLQPEDFGNYYCQHHYGTPWTFGGGTKVEIKR
notes: Mouse hybridoma antibody, purified; also called anti-ID clone 15
Consider B6, for which the binding result in assay [7] is given as “binds”. For the same molecule, in assay [1], binding was characterised by a dissociation constant (Kd) of 2.2 nM and the off-rate constant (koff) was determined as 4.4e-05 s⁻¹. Further, in assay [2], the Kd is 18 nM and the koff was found to be 0.0036 s⁻¹.
Turning to B7, the binding result in assay [8] is “binds”.
